In general, Kd refers to the concentration at which binding is half-saturated.

The text below walks through data of patent US9732101B2, “Bioreversible boronates for delivery of molecules into cells” (WISCONSIN ALUMNI RESEARCH FOUNDATION, priority 2012, dated 2017).

The nature of test [1]: Fluorescence polarization assay of binding to GD3 ganglioside-labeled liposomes. Details: species or system bovine. As to conditions: for affinity for GD3 ganglioside relative to binding of a single benzoboroxole to Neu5Ac: compared with Ka of Table 1. As for the experimental part:
Liposomes were formed by transferring DOPC (dissolved in chloroform solution) and GD3 gangliosides (dissolved in 63:35:5 chloroform/methanol/water) to glass tubes and drying them under Ar (g) and then under vacuum. Lipids were re-suspended in 25 mM HEPES buffer, pH 7.0, containing NaCl (75 mM). The solution of lipids was mixed by vortexing for 2 min, and incubated at 37° C. for 1 h. For DOPC liposomes, DOPC was resuspended at a concentration of 5 mM. For GD3 ganglioside-labeled liposomes, DOPC and GD3 gangliosides were mixed at 3 mM and 2 mM concentrations, respectively. Large unilammelar vesicles were formed by extrusion through a 0.1-μm polycarbonate filter from Whatman (GE Healthcare, Piscataway, N.J.). This process produces a population of vesicles of near uniform size (˜100-150 nm diameter as measured by dynamic light scattering). A portion of the DOPC lipids before extrusion were aliquoted as a control.
Fluorescence polarization assays were performed using 50 nM BODIPY FL-labeled unmodified and benzoboroxole-boronated RNase A in black NBS 96-well plates (Corning Costar, Lowell, Mass.). These ribonucleases were incubated with DOPC liposomes (625 μM total lipid) or GD3 ganglioside-labeled liposomes (375 μM DOPC, 250 μM GD3 ganglioside=625 μM total lipid) in 25 mM HEPES buffer, pH 7.0, containing NaCl (75 mM) in the absence or presence of fructose (10 mM). In control wells, ribonucleases were incubated with non-extruded DOPC lipids. Fluorescence polarization at 470/535 nm with a G-factor of 1.257 was recorded after shaking the plate briefly and incubating at ambient temperature for 1 h. Control well polarization was subtracted from experimental well polarization for each ribonuclease. The assay was performed in triplicate.
The affinity of benzoboroxole-boronated RNase A for GD3 ganglioside-labeled liposomes was assessed by using serially diluted liposomes. GD3 ganglioside-labeled liposomes were serially diluted in 25 mM HEPES, pH 7.0, containing 75 mM with dilutions of 62.5 nM-1250 μM total lipid. […] Control DOPC liposomes (with no GD3 ganglioside) were likewise diluted in the same buffer, producing solutions of 62.5 nM-1250 μM total lipid. Liposomes were then incubated with 50 nM BODIPY FL-labeled benzoboroxole-boronated RNase A in the same buffer in a black NBS 96-well plate. Fluorescence polarization was recorded after shaking the plate briefly and incubating at ambient temperature for 35 min. Fluorescence polarization from GD3 ganglioside-labeled liposomes was subtracted from that from DOPC-only liposomes, thereby correcting for binding to DOPC and for changes in solution viscosity. The assay was performed in duplicate. The fraction of labeled ribonuclease bound for each sample well was calculated by dividing its polarization from the polarization of ribonucleases incubated with the highest concentration of GD3 ganglioside (set at 100% bound). The value of Kd was calculated by plotting the fraction bound against the concentration of GD3 ganglioside (see FIG. 21) and fitting the data to a binding isotherm as described in ref. [46] to give Kd=(54±11) μM.

Test [2] is described as follows: Heparin-affinity assay (retention on immobilized heparin column). The format is binding. As to conditions: for retention on column of heparin in presence of fructose: 0.10 M fructose in elution buffer. As for the experimental part:
To assess the affinity of boronated proteins for oligosaccharides the retention of boronated proteins compared to unmodified protein can be measured on a heparin column.
For example, the affinity of unmodified and benzoboroxole-boronated RNase A for heparin was assessed by retention on a 1.0-mL HiTrap Heparin HP column (GE Healthcare, Piscataway, N.J.). Unmodified and benzoboroxole-boronated RNase A were mixed in a 1:1 ratio (2.0 mg each) in DPBS, and the resulting solution was loaded onto the column. The column was washed with 5 mL of PBS, followed by elution with 45 mL of a linear gradient of NaCl (0.0-1.0 M) in PBS. Elution was monitored by absorbance at 280 nm, and eluted proteins were identified by mass spectrometry. FIG. 2 illustrates an elution profile of a mixture of unmodified RNase A and benzoboroxole-boronated RNase A from a column of immobilized heparin (solid lines). A small amount of unmodified RNase A was apparent in peak B (FIG. 2). It is currently believed that benzoboroxole-boronated RNase A was able to complex to a small amount of unmodified RNase A and extend its elution time. The same assay was then repeated with 100 mM fructose in both buffers (FIG. 2, dashed line). To make fructose-supplemented buffers, fructose (18 g, 100 mmol) was added to 100 mL of a 10× stock solution of PBS, either no additional NaCl or NaCl (58.4 g, 1.00 mol) was added, and both buffers were diluted to a final volume of 1 L and adjusted to pH 7.4.

In a further test the test system is 6-FAM-dArUdAdA-6-TAMRA. Briefly: Ribonucleolytic activity assay. Particulars: relative to unmodified RNase A; 0.10 M MES-NaOH buffer, pH 6.0, NaCl 0.10 M. The format is biochemical. Here is the method: Assays were carried out at ambient temperature in 2 mL of 0.10 M MES-NaOH buffer, pH 6.0, containing NaCl (0.10 M). Fluorescence data were fitted to the equation: kcat/KM=(ΔI/Δt)/(If−I0)[E], in which ΔI/Δt is the initial reaction velocity, I0 is the fluorescence intensity before addition of ribonuclease, If is the fluorescence intensity after complete substrate hydrolysis, and [E] is the total ribonuclease concentration. The assay was performed in triplicate.

B1: benzoboroxole-boronated RNase A: RNase A with 5-amino-2-hydroxymethylphenylboronic acid conjugated to protein carboxyl groups by carbodiimide condensation (conjugate, UniProt P61823 27-150, looked up)
Ribonuclease pancreatic: KETAAAKFERQHMDSSTSAASSSNYCNQMMKSRNLTKDRCKPVNTFVHESLADVQAVCSQKNVACKNGQTNCYQSYSTMSITDCRETGSSKYPNCAYKTTQANKHIIVACEGNPYVPVHFDASV
modifications: benzoboroxole conjugated to carboxyl groups
notes: RNase A with 5-amino-2-hydroxymethylphenylboronic acid conjugated to protein carboxyl groups by carbodiimide condensation
B1 returned a Kd in test [1] (BODIPY FL-labeled protein 50 nM, 25 mM HEPES buffer, pH 7.0, NaCl 75 mM) of 54 ± 11 µM. The “affinity for GD3 ganglioside relative to binding of a single benzoboroxole to Neu5Ac” value in test [1] (listed as benzoboroxole-boronated protein) is given as about 430 fold; in test [1] (listed as boronated protein) it was about 440 fold. In test [1] (fluorescence polarization, absence of fructose, versus unmodified RNase A), the “effect of boronation on affinity for the ganglioside” value was “increased the affinity”. Also, in test [1] (fluorescence polarization, fructose 10 mM), the “effect of fructose on the increased affinity for the ganglioside” value is listed as “abrogated”. The “retention on column of heparin in presence of fructose” value in test [2] is given as “diminishing retention”; in test [2] (listed as boronated RNAse A), “diminished the retention”. In test [2] (versus unmodified RNase A, NaCl gradient in PBS), the “retention on column of heparin” value is given as “retained longer”. This molecule also had a ribonucleolytic activity retained with 6-FAM-dArUdAdA-6-TAMRA of 17±2%.
